From patent US20140302049A1

Target: human GPR49 (LGR5), on cells (human) (UniProt O75473)
Experiment: cell-based or functional assay

Sequence of UniProt O75473 (O75473 22-907 limits assumed): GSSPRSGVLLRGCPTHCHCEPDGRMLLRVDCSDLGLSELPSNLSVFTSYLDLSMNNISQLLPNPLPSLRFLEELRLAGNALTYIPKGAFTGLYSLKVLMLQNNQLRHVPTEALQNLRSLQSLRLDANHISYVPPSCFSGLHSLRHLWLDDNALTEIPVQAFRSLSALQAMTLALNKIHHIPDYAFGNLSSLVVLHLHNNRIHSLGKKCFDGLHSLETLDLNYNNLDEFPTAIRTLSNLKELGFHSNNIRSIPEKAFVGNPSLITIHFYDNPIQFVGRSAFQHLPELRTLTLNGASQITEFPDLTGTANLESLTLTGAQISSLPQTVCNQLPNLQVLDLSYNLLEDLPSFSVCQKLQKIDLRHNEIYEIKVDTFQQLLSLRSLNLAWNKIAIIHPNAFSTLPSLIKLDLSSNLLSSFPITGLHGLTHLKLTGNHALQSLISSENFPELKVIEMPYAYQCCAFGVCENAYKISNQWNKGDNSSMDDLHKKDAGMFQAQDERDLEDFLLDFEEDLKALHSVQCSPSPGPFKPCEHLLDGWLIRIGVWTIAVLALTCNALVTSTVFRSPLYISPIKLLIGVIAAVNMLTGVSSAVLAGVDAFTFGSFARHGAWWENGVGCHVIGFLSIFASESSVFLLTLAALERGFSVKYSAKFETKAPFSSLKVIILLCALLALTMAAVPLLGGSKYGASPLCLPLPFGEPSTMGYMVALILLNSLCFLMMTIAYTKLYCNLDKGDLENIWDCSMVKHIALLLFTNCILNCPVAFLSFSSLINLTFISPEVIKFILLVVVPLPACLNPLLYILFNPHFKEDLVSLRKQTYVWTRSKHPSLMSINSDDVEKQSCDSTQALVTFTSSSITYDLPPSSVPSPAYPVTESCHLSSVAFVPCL

Question: Which increase in proliferation of GPR49-3T3 clone 28 does the source give for R-spondin 1 (ligand) here?
Answer: Its increase in proliferation of GPR49-3T3 clone 28 is 4 fold.
